In general, Kd refers to the constant that tells how readily two partners part at equilibrium. Read a low Kd as a tighter complex.

Experiment [1] deals with pro-cathepsin D (UniProt P07339).
Experiment [2] shares this target. Put plainly: MST.
The target is the same in experiment [3]. The source holds these as a separate data set.

pro-cathepsin D, sequence (P07339 21-412): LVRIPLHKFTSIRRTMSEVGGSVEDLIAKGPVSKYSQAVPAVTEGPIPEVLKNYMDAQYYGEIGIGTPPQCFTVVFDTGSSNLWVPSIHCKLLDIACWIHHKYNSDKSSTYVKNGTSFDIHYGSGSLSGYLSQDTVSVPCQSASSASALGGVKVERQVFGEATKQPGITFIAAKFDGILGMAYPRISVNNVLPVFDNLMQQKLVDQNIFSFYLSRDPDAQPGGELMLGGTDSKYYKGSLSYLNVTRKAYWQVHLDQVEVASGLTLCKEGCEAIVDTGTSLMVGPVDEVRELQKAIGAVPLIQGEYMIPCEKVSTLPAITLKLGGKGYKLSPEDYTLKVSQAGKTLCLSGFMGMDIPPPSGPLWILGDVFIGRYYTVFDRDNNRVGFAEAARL

On to “multi-granulin domain peptide BAC (domain or fragment)”, for which, in experiment [1], the DSF - ΔTm of proCTSD (1 μM proCTSD with 2 μM peptide BAC, pH 7.4) was -3.38 °C and the Normalized Vmax of CTSD activity (20 nM proCTSD, 65 nM peptide BAC, pH 3.5) stood at 1.89. The substance further came in with a Kd in experiment [2] of 2800 nM.
As for “multi-granulin domain peptide CDE (domain or fragment)”, in experiment [1], the DSF - ΔTm of proCTSD with peptide CDE, pH 7.4 was -2.78 °C and the Normalized Vmax of CTSD activity (20 nM proCTSD, 65 nM peptide CDE, pH 3.5) is 1.84. This substance came in with a Kd in experiment [2] of 130 nM. In addition, the DSF - Tm reduction of proCTSD with CDE at a 1:1 molar ratio in experiment [3] turned out to be 2.75 °C.

Source of the values: PMC6666309.
